{"source": "the DeepSol protein solubility set", "data": [{"assay": "soluble on expression in E. coli; label from the status in PepcDB or PDB records", "values": [{"sequence": "MAQTNLSFNPSPRYKSKKGWYKDTPPKEKGGMPTEVEIAGPIVIENKFIDPKTNTEKLIITDEDQKEIVESSDILTTQKLPSLMKYGFSINEKYTKDLGYALQQMRNQLPISYLYEGVGILETPFGPIVSLSEIYTTKEFDNKSPSDAICDNAYDLTPKGTFDNWFNMYLKEVKGSLLLELAVVFGISALVTSFLKHKHETEFAGIIFSFTGQSSTGKSTAASLAVSVAGNPTKGNETLFRNWNATRNALEGYLSNNFGIPIVFDELSSATFRDTTGLLYSITEGQGRQRSNVHGEVKTPKNWGTSVISTSEHSIFNDSAQNDGLRVRTIEINEQFTTNATNADNIKKAVALNYGHVLPLVAKYLINREDEVIQWFYKEVDWFEAKLKDDKSNTGNRMFKRYAVITTSAKILGRVLATDIDIAKIRDYFIDYHGHTISERSLADKAIDVIIQFVAQNRGKFSDEGALKNMFENYGLISLKDDHIEVKMIANVFKQMLNNHQFQDVNNVVNALRDKGFILADRGRQTTKRSVKDNSGKKQSLVFYHLKLDVEFASILGLTKDKSLIQNWTPANDNKAAKELFKSANEGIGPSGVHEDFLEHHHHHH", "soluble on expression in E. coli": "not soluble"}, {"sequence": "MAQTQLSYKNKTYQISYEILGDLSLPQILILHGWGADKKLMKQSFCPFLKDFCQIYMDLAGFGNSSVEEILNTQDYANITELFLKQKKLNVCFFMGHSFGGKVSTLLAKEKDTLILLSSAGILAKKSLKVRFKIRIFKILKLFGLGKFYRYFASKDGANLSPIMYETFKKVVDEDFSEIFAKQKAKSLIFWGKSDEATPLYCGEKMHQFLKNSTFYPLEGDHFFFLKHSAFIAQKIKEI", "soluble on expression in E. coli": "not soluble"}, {"sequence": "MAQVKAEYDFQSQPNTGELSISAGEVLTVIRENIDGGWIEGRNVRGSVGLFPESYVTPYQASRPPPVLPPPLPPTSSGPPAASSRPFDDWGGASEVAAPPSYGAQHHHQPTPSVPEVTRSSYPSQNDDFDDEWTDEDDEQEPTRPNVQSSIGSNSRRDLSRSHSEHGGPDRGSNKVNKNINRFSNFVKSGVEAYVIGESKTTSQISERHEVVMNNGIIQWKPIQQYYTCIVDKPKKESKLKGLKSFIAYSITSSLTNIQRQVSRRYKHFDWLHEQLSAKYVLIPIPPLPEKQVAGRYEEDLIDHRKHILQLWVNKICRHPVLSQSEVWLHFISCTDEKDWKNGKRRAEKDEYIGGAFLNCITVPHQPLDPNNVDMQVERFQRSVKTSEEAMRVMQERMNMFQKVFAGPVKQNWQKMGSAFKTLQQSFEIDETVASRRLTEALAYTASEYHEIGQVFDAHTKNDMEPVLENLYSYKGTVQNVPDIIQVHKQAVQKFRDSEGRLSSAEAEKMKQRIDAMSYTVIAEVQHQTAEKVEDMKSTMGTYLKKQAMFYQEVATKLTSLAARYD", "soluble on expression in E. coli": "not soluble"}, {"sequence": "MAQWSTMSTADRDFVVRFPTGTSDPLSDAEIQQYREEIDRLDKEILAAVKRRTEISRAIGKTRMGSGGTRLVHTREVAIINQFREEIGEEGPALAGILLRMGRGRLGEAR", "soluble on expression in E. coli": "not soluble"}, {"sequence": "MAQYRPDELARYAQRVMDWLHPDGDLTDTERARKRGITLSNQQYDGMSRLSGYLTPQARATFEAVLAKLAAPGATNPDDHTPVIDTTPDAAAIDRDTRSQAQRNHDGLLAGLRALIASGELGQHNGLPVSIVVTTTLTDLQTGAGKGFTGGGTLLPMADVIRMTSHAHHYSPASGRYPQAIFDHGTPLALYHTKRLASPAQRIMLEHHHHHH", "soluble on expression in E. coli": "soluble"}, {"sequence": "MARFSIEGKSLKLDAITTEDEKSVFAVLLEDDSVKEIVLSGNTIGTEAARWLSENIASKKDLEIAEFSDIFTGRVKDEIPEALRLLLQALLKCPKLHTVRLSDNAFGPTAQEPLIDFLSKHTPLEHLYLHNNGLGPQAGAKIARALQELAVNKKAKNAPPLRSIICGRNRLENGSMKEWAKTFQSHRLLHTVKMVQNGIRPEGIEHLLLEGLAYCQELKVLDLQDNTFTHLGSSALAIALKSWPNLRELGLNDCLLSARGAAAVVDAFSKLENIGLQTLRLQYNEIELDAVRTLKTVIDEKMPDLLFLELNGNRFSEEDDVVDEIREVFSTRGRGELDELDDMEELTDEEEEDEEEEAESQSPEPETSEEEKEDKELADELSKAHI", "soluble on expression in E. coli": "soluble"}, {"sequence": "MARHKCQDCGKTFDLKRYLTKHELRMHKNVVKSKNDRSASDPLKCSMCDKVFPRLSHLQRHQMTHLNVRNYSCTFCEEKFVQKSHLTRHVSRKHSNAPGVEVDWTACDKCGQLFKTTYEMRIHRQTYHELHKCKQCQEVIEAGSDGLRKHHMQCRKYSNVCDECGASFSRPADLVSHETSCLKKFAFVCKPCDSYFRQRVQLDRHIKKAHFHPTKCSKCEQISDTPVQNSRHSLECVKVIICGYCSLKNPDKNHVATVHWHRLKRAVSKSVTIRHKLKDAPIADKDVPSSSGQSSLEEEILDDSEDDLEDTGEGLSNREQFKNRDIKRENNLEEVKSSTDNRDEEDSLFNFPDTSTSQLDFCSTAFTEDDSFPGDYVTLSICPKNTDLSFDLRDRLPPELSELFPELEATSIVLLNKSIRCRMTVRVPVCIPKSSTQEAEMRKWLDMTVVLKDD", "soluble on expression in E. coli": "not soluble"}, {"sequence": "MARIGIRYAEYSAMTVLRYLQAYPPHLQAQVRQMIDSDRLGEYLQRRYPDRHDVQSDKALYGYAQDLRQQYLRSAPNLDKVLFDSRLDLTHRALGLNTAVSRVQGGKLKAKKEIRIASLFKEAAPQFLRMIVVHELAHLRERDHNKAFYQLCQHMEPDYHQLEFDLRVYLTYRELPGNLLEHHHHHH", "soluble on expression in E. coli": "not soluble"}, {"sequence": "MARKRIITPEKKELIRNLISEYNITSAKDLQEALKDLLGDTIQNMLEAELDEHLGYEKYESTEEAKSNYRNGYTSKTLKSSVGQVEIDIPRDRNAEFEPKIVPRYKRDISEIENKIIAMYARGMSTREINEQIQEIYGFEVSAEMVSKITDKILPEIEEWQKRPLGEVIR", "soluble on expression in E. coli": "soluble"}, {"sequence": "MARLEVPRPATFVTLTGFMGVGKSRIGRELARALMLHFIDLDRYIERRTGISIPDIFRHLGEEAFRRMEKEAVRELVGKDYLVLSLGGGTFMDPESQKALLGRGPVVALWASPETILERAMRKPGERPLLQVENPLERIRTLLEARAPVYRKAHIHVSTDGRRVEEVVEEIVEKLWRHAEARGA", "soluble on expression in E. coli": "soluble"}, {"sequence": "MARNVKGYASTLTWTITRNTLNFLWEQGFKMRINREEILDLMKNAPLKELGQRALRVKQRLHPENLTTFIVDRNINYTNICFVDCKFCAFKRTLKEKDAYVLSYEEIDQKIEELLAIGGTQILFQGGVHPQLKIDYYENLVSHIAQKFPTITIHGFSAVEIDYISKISKLSLKEVLERLKNAGLSSIPGAGAEVLSDRVRDVIAPKKLSSDRWIEVHRMAHLCGIKSTATMMFGSVDNEEDVVEHLQRVRDLQDETGGFRAFILWSFQPNNTPLKEEIPSIKKASSNRYLRYLACSRIFLDNIQNIQSSWVTQGSMIGQLALLFGANDLGSVMMEENVVKAAGTSFCMNEAGMIELIEDIGSVAAKRNTAYEILKRYPAKAKV", "soluble on expression in E. coli": "not soluble"}, {"sequence": "MARPIATHDNTFTKAYLQQHCGDLLSFDGQGDLSGWLDDVLTGAGRLNESMASNTKPVSPYLILTQLLTHDTLTVSAVQESLSRKRVALGEPMVSTRYARYVYATVVSASKSVQYHASKAGS", "soluble on expression in E. coli": "not soluble"}, {"sequence": "MARSITMQQRIEFGDCNPAGIVWYPNYHRWLDAASRNYFIKCGLPPWRQTVVERGIVGTPIVSCNASFVCTASYDDVLTIETCIKEWRRKSFVQRHSVSRTTPGGDVQLVMRADEIRVFAMNDGERLRAIEVPADYIELCS", "soluble on expression in E. coli": "soluble"}, {"sequence": "MARTVNLKGNPVTLVGPELKVGDRAPEAVVVTKDLQEKIVGGAKDVVQVIITVPSLDTPVCETETKKFNEIMAGMEGVDVTVVSMDLPFAQKRFCESFNIQNVTVASDFRYRDMEKYGVLIGEGALKGILARAVFIIDKEGKVAYVQLVPEITEEPNYDEVVNKVKELI", "soluble on expression in E. coli": "not soluble"}, {"sequence": "MARVVVDAQAARAIGKGAMIVFKKGVVRVEGDIKPGDIVEVYTRGGKFLGKGFANPNSNIMVRIVTKDKDVEINKDLFKRRIKKANEYRKKVLKYTNVYRMVYGEADYLPGLIVDRFNDIASLQISSAGMERFKLDVAEAIMEVEPGIETVFEKNTGRSRRREGLPEIERVLLGKEKYRTIIQEGRAKFIVDMRGQKTGFFLDQRENRLALEKWVQPGDRVLDVFTYTGGFAIHAAIAGADEVIGIDKSPRAIETAKENAKLNGVEDRMKFIVGSAFEEMEKLQKKGEKFDIVVLDPPAFVQHEKDLKAGLRAYFNVNFAGLNLVKDGGILVTCSCSQHVDLQMFKDMIIAAGAKAGKFLKMLEPYRTQAPDHPILMASKDTEYLKCLFLYVEDMR", "soluble on expression in E. coli": "soluble"}, {"sequence": "MASDGVVVEIGKVTGSVGTTVEIPVYFRGVPSKGIANCDFVFRYDPNVLEIIGIDPGDIIVDPNPTKSFDTAIYPDRKIIVFLFAEDSGTGAYAITKDGVFAKIRATVKSSAPGYITFDEVGGFADNDLVEQKVSFIDGGVNVGNATPTKGATPTNTATPTK", "soluble on expression in E. coli": "soluble"}, {"sequence": "MASETVSNHQEKALALLQADAEKILRLIKVQMDHLTMPQCPLYEEVLDTQMFGLSREVDFAVRLGLIAEEQGKVMLGELERELSALHEAFTNKQQ", "soluble on expression in E. coli": "not soluble"}, {"sequence": "MASGRARCTRKLRNWVVEQVESGQFPGVCWDDTAKTMFRIPWKHAGKQDFREDQDAAFFKAWAIFKGKYKEGDTGGPAVWKTRLRCALNKSSEFKEVPERGRMDVAEPYKVYQLLPPGIVSGQPGTQKVPSKRQHSSVSSERKEEEDAMQNCTLSPSVLQDSLNNEEEGASGGAVHSDIGSSSSSSSPEPQEVTDTTEAPFQGDQRSLEFLLPPEPDYSLLLTFIYNGRVVGEAQVQSLDCRLVAEPSGSESSMEQVLFPKPGPLEPTQRLLSQLERGILVASNPRGLFVQRLCPIPISWNAPQAPPGPGPHLLPSNECVELFRTAYFCRDLVRYFQGLGPPPKFQVTLNFWEESHGSSHTPQNLITVKMEQAFARYLLEQTPEQQAAILSLV", "soluble on expression in E. coli": "soluble"}, {"sequence": "MASGVTVNDEVIKVFNDMKVRKSSTPEEIKKRKKAVLFCLSDDKKQIIVEEAKQILVGDIGDTVEDPYTAFVKLLPLNDCRYALYDATYETKESKKEDLVFIFWAPESAPLKSKMIYASSKDAIKKKFTGIKHEWQVNGLDDIKDRSTLGEKLGGNVVVSLEGKPL", "soluble on expression in E. coli": "soluble"}, {"sequence": "MASIAYGNNNYVIVKRDGKILTSSDGHEWKEKYFLQGGSFTSVTYNGNMFVAAGAYTVALPYGGPLTYGKCVIMTSPDGNNWQLQDAGYNADLKGITWSGKKFAVAGTNIILSSENGITWNAVEVNAILHDIAFGNGIFAAVGYDGVIMSSVDGEHWETKVEALRYDLTNIVWYDNKFIAIGSGSTPSIVVSGDGKTRVARGPKDASYKCDSSLHNVEWRKTGCSRLRQYYSDRRAKGYS", "soluble on expression in E. coli": "soluble"}, {"sequence": "MASIKKVYRGMKNGAETINDDLEAINSELTSGGNVVHKTGDETIAGKKTFTGNVEVNGSLTLPVQTLTVEAGNGLQLQLTKKNNDLVIVRFFGSVSNIQKGWNMSGTWVDRPFRPAAVQSLVGHFAGRDTSFHIDINPNGSITWWGANIDKTPIATRGNGSYFIK", "soluble on expression in E. coli": "soluble"}, {"sequence": "MASLAAVVRALLRRESQRATGYALREWTMLTARHLPYLQGQLTLGRIAAVGHLQRSTLGRSEWHTSSAPLFGEGRGRWHWGLSTSDVVDGSDHEHHSTETGGRELPSFKTGELGSDVDGDRAALEAWLAQIRDETSGWPELSLDALRDELDEELEGDDDDNDDDDDETYENEELLKALQEAVNRHRTPVVALVSGRVVHLRRTAAPKRSPRAGRVPRNEPQTTSRDTTKADANDNECT", "soluble on expression in E. coli": "soluble"}, {"sequence": "MASMQKLINSVQNYAWGSKTALTELYGIANPQQQPMAELWMGAHPKSSSRITTANGETVSLRDAIEKNKTAMLGEAVANRFGELPFLFKVLCAAQPLSIQVHPNKRNSEIGFAKENAAGIPMDAAERNYKDPNHKPELVFALTPFLAMNAFREFSDIVSLLQPVAGAHSAIAHFLQVPNAERLSQLFASLLNMQGEEKSRALAVLKAALNSQQGEPWQTIRVISEYYPDDSGLFSPLLLNVVKLNPGEAMFLFAETPHAYLQGVALEVMANSDNVLRAGLTPKYIDIPELVANVKFEPKPAGELLTAPVKSGAELDFPIPVDDFAFSLHDLALQETSIGQHSAAILFCVEGEAVLRKDEQRLVLKPGESAFIGADESPVNASGTGRLARVYNKL", "soluble on expression in E. coli": "soluble"}]}]}
